Measurements: PMC4247251

Target: PhTX-II PLA2 (Porthidium hyoprora)

Substance | inhibition of the PLA2 enzymatic activity of PhTX-II (substrate 4-nitro-3-(octanoyloxy) benzoic acid) after incubating the two proteins 1:1 w/w for 30 min at 37 °C [%]
crotapotin F2 from Crotalus durissus collilineatus (natural protein) | 60
crotapotin F3 from Crotalus durissus collilineatus (natural protein) | 60
